Laboratory results: patent US8026218 (UNIVERSITY OF ARIZONA, dated 2011)
Square brackets hold non-standard residues; d marks the D form. Ends that are not written are not given here. * marks the point of attachment. OBzl(3,5-(CF3)2) = FC(F)(F)c1cc(CO*)cc(C(F)(F)F)c1

Legend:
human δ opioid receptor [1] = biological target: T1, human δ opioid receptor (human, UniProt P41143 1-372); assay: cell-based or functional assay
rat µ opioid receptor [2] = biological target: T2, rat µ opioid receptor (rat, UniProt P33535 1-398); assay: cell-based or functional assay
T2 sequence (P33535 whole entry): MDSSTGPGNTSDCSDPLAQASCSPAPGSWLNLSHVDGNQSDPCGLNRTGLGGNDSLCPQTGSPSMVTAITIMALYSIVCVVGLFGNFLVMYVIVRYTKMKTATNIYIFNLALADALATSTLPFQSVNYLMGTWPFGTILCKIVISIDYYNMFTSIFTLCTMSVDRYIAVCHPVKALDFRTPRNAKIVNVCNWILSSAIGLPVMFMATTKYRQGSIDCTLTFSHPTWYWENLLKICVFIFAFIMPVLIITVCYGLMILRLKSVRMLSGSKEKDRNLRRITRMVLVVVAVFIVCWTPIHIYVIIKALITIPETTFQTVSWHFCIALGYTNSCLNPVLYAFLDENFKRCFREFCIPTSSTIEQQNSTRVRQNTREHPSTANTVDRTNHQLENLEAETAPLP

rat µ opioid receptor [3] = biological target: T2, rat µ opioid receptor; assay: competition vs [3H]DAMGO, rMOR cell membranes
human δ opioid receptor [4] = biological target: T1, human δ opioid receptor; assay: competition vs [3H]DPDPE, hDOR cell membranes
human NK1 receptor = biological target: T3, human NK1 receptor (human, UniProt P25103 1-407); assay: competition vs [3H]Substance P, hNK1 CHO cell membranes
T3 construct: whole, on cells; membrane preparations of the transfected cells were used; also called hNK1; human neurokinin-1 receptor
T3 sequence (P25103 whole entry): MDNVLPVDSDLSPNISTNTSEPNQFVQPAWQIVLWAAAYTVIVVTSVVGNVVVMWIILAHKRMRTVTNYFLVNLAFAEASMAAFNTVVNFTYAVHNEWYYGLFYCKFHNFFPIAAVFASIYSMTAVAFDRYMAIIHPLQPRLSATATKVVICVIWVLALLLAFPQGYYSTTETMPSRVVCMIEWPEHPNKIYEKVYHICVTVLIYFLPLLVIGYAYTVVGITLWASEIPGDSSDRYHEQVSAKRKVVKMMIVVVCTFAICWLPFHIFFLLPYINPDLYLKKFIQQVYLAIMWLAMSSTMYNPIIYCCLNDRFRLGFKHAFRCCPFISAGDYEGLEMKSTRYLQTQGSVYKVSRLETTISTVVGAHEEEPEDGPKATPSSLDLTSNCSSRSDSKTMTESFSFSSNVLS

rat NK1 receptor = biological target: T4, rat NK1 receptor (rat, UniProt P14600 1-407); assay: competition vs [3H]Substance P, rNK1 CHO cell membranes
T4 construct: whole, on cells; membrane preparations of the transfected cells were used; also called rNK1; rNK-1
T4 sequence (P14600 whole entry): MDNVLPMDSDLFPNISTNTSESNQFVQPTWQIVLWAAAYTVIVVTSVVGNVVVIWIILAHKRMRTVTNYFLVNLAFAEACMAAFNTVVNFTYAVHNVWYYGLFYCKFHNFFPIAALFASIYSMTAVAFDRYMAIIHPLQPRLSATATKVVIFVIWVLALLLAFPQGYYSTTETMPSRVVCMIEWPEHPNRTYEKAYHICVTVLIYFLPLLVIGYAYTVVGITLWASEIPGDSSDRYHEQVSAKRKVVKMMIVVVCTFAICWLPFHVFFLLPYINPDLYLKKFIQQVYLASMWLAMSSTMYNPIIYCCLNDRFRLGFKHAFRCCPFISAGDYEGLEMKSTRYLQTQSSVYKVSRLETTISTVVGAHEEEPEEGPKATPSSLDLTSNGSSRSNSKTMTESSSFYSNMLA

T1 sequence (P41143 whole entry, stated change not applied): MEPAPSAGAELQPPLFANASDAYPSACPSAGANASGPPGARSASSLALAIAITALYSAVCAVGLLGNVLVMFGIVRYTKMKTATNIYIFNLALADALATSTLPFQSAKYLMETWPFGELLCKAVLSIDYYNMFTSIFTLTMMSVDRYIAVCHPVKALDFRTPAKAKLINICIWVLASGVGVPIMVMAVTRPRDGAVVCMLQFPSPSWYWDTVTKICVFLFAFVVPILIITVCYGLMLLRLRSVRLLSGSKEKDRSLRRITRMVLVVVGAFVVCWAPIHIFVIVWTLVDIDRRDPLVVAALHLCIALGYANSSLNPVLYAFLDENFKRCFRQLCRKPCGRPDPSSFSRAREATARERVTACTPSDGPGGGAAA

B1: Tyr-D-Ala-Gly-Trp-O-3′,5′(CF3)2-Bzl (peptide)
peptide: Y[dA]GW-{OBzl(3,5-(CF3)2)}
notes: also called NP44
GTP EC50 (human δ opioid receptor [1]): 280 nM | GTP EC50 (rat µ opioid receptor [2]): 22.9 nM | Ki (rat µ opioid receptor [3]): 48.5 nM | Ki (human δ opioid receptor [4]): 306 nM | Ki (human NK1 receptor): 0.03 nM | Ki (rat NK1 receptor): 3.4 nM
